# Reference: US12551573B2, “Compositions and methods for the targeting of PCSK9” (Scribe Therapeutics Inc., priority 2022, dated 2026)
# Residue numbers refer to the chain shown, from its start.
# B1: DOMAIN_14714 (protein, listed as Odocoileus virginianus)
# chain: PQESVTFEDVAVNFSYEEWQCLTHAQRHLYTDVMLENYGNMVSLGFSFSKPPLISRLEQGTEPYVQDRQDWEFLNCSYPAA
# B2: DOMAIN_15269 (protein)
# chain: YRGPVTFKDITVEFTREEWKLLDTAQRTLYREVMQENYSHLISVGYCANRPNAIFKLKQGKEPWILEVQFPRQKNPEDLCN
# modifications: Ovis aries
# B3: DOMAIN_15451 (protein)
# chain: PLKLVTFEDVAVDFTQEEWSLLDKSQKNLFRNVMMETIHHLVSVGYQISKSDVISQLEQGKELWSKAAGGFQGQRPGEHQG
# modifications: Bison bison
# B4: DOMAIN_15138 (protein)
# chain: CEGSVSFEDVTMDFSREEWQQLDPAQRCLYQDVMLEIYSHLLFVGYNIPNPEIISRMEKGEEPWMREVQLPHQRHRERAFG
# modifications: Vulpes vulpes
# B5: DOMAIN_14983 (protein, listed as Rhinopithecus roxellana)
# chain: MAFEDVAVYFSQEEWGLLDTAQRALYRRVMLDNFALVASLGLSTSRPRVVIQLERGEEPWVPSGTDTVLSRNTYRRRNPGS
# B6: DOMAIN_14946 (protein, listed as Acinonyx jubatus)
# chain: LQVSVSFEDVTVNFSREEWQRLDPAQRRLYRDVTLENYSHLRSVGYQVPKPEVIFKLEQGEGPWTLEGETPHQSCSGEDIG
# B7: DOMAIN_14546 (protein)
# chain: GLLSFEDVALYFTREEWDTLDWAQKALYRDVMLDNYRHIVSLGFPFPKPEVICQLEQWEEPWILDLPRAGTRKASGSACPD
# modifications: Muntiacus muntjak
# B8: DOMAIN_15251 (protein, listed as Callithrix jacchus)
# chain: AAGRVTFEDVTVSFTKGEWQQLNPEQRELYRDVMLENYGNLVSVGLEETSKPSVILRLEEGKEPWSEEEVLRGGRPEKNWD
# B9: DOMAIN_13691 (protein, listed as Sapajus apella)
# chain: AQESVTFEDVAVNFTDREWQCLTYAQRHLYKDVMLENYGNMVSVGFLFPKPPLISHLERGVEPCVQDPQDRESLSCSCLVS
# B10: DOMAIN_14082 (protein)
# chain: SPTLVTFKDIHVNFTREEWNLLDAAQQIMYKDVMLENYKNLVSVGHQLPKPDVILQLEKGEEPWLVERGVRQDTRPDWDTA
# modifications: Phyllostomus discolor
# B11: DOMAIN_15406 (protein)
# chain: B5 chain with T65K, T67M, V68T, S70A, R75G, R77L, P79S
# modifications: Pan troglodytes
# B12: DOMAIN_15227 (protein, listed as Rhinopithecus roxellana)
# chain: MAFEDVAVYFSQEEWGLLDTAQRALYRHVMLDNFTLVTSLGLSTSRPHVVIQLERGEEPWVPSGKDMTLARNTYRRLNAGE
# B13: DOMAIN_15089 (protein)
# chain: SQELVAFEDVLVDFTPEEWQYLNSSQKTLYREVMLETYSNLVSVAGQQDTKPDLILKLELEGPCLAERKISVWSFPEEACQ
# modifications: Vulpes vulpes
# B14: DOMAIN_14746 (protein, listed as Odocoileus virginianus)
# chain: VTELLTFKDISVDFTQEEWGQLAPAHRNLYREVMLENYGNLVSVAGCQLSKPSVISQLEKGEEPWMTEKEGAGDPSSDLKS
# B15: DOMAIN_15184 (protein, listed as Acinonyx jubatus)
# chain: ASVVFEDVAVNFTPEEWALLNPGQRKLYRDVMLETCRNLSAVGCRSQGNTSTPRPQWSILLNEPPGEDKTGIFTRKDSCSV
# B16: DOMAIN_15279 (protein, listed as Callithrix jacchus)
# chain: VNDLVTFKDVAIDFSQEEWQWMNPAQKRLYRSMMLENYQSLVSLGLCVSKPYVISLLEQGREPWEMTSEMRRSPFSDWESI
# B17: DOMAIN_15356 (protein, listed as Acinonyx jubatus)
# chain: TPDVVTFEDVAVCFSSGEWQCLTRAQRHLYTDVMLENYGNMLSAGLACPKPPLISHLEQGAVPCAEDLQDWGFLTCSFPVS
# B18: DOMAIN_14287 (protein, listed as Bos indicus)
# chain: VQGSVSFEDVAVGFSQEEWQILGPSQKALYWDVMLENYCNLVSVGYQAPTPNSLFQLEQGGPPWTVEGAALSPTCSGKKLY
# B19: DOMAIN_18563 (protein, listed as Aotus trivirgatus)
# chain: IQGQVNFEDVFVYFSQEEWVLLDEAQRLLYRDVMLENFALMASLGHTSFTSHTVASLVMGPDWVDVTPAVATGTLSGSGPG
# B20: DOMAIN_24125 (protein, listed as Saimiri boliviensis)
# chain: B5 chain with S45T, T67M, V68T, L69M, T73A, Y74H
# B21: DOMAIN_13277 (protein, listed as Macaca fascicularis)
# chain: MTFEDVSVEFTQGEWGQLNPAQKDLYREVMLENFRNLAFLGLPVSKPYVICQLEEGGEPFIVEREVSTGAYSDWERRSKSK
# B22: DOMAIN_13121 (protein, listed as Macaca fascicularis)
# chain: GKELLSFEDVAMYFTREEWGRLDWGQKDLYRDVMLENYRNMVLLGFQFPKPEVICQLENWDEQWILDLPRAGSRKASGSAC
# B23: DOMAIN_12912 (protein)
# chain: B6 chain with R21H
# modifications: Puma concolor
# B24: DOMAIN_13269 (protein, listed as Desmodus rotundus)
# chain: B6 chain with N13D, R21H, R31W, R42L, F55L, G77D
# B25: DOMAIN_12896 (protein, listed as Macaca fascicularis)
# chain: DTVVFEDVVVGFTLEEWALLNPAQRNLYREVMLETFKHLASVDNEAQPKTNGSISQQDTSGEKLSLKQKIEKFTRKHTWAS
# B26: DOMAIN_12755 (protein, listed as Oryctolagus cuniculus)
# chain: SLGPVSFKDVAVGFTQEEWRQLEPAQRRTYREVMLENYSHLVAVGCHFIKPDVITKLERGEEPWIEGGFLPQGCADEVWQA
# B27: DOMAIN_12901 (protein, listed as Macaca fascicularis)
# chain: B12 chain with D32E
# Test system: HBEGF locus
# Assay type: cell-based, human
# Conditions: high-throughput screen of dXR repression of the HBEGF gene; abundance of each domain in the library before and after diphtheria toxin selection; HEK293T cells
row,Molecule,Log2 (fold change)
1,B1,3.2752
2,B2,2.0839
3,B3,3.2905
4,B4,3.1771
5,B5,3.704
6,B6,3.2842
7,B7,3.5039
8,B8,2.2209
9,B9,2.6205
10,B10,3.2495
11,B11,3.4616
12,B12,3.5532
13,B13,2.3585
14,B14,2.605
15,B15,3.0092
16,B16,3.8574
17,B17,3.5466
18,B18,3.6232

# Same assay, conditions: high-throughput screen of dXR repression of the HBEGF gene; change in abundance of each domain in the library before and after diphtheria toxin selection
row,Molecule,Log2 (fold change)
1,B19,3.0406
2,B20,3.9692

# Same assay, conditions: repressor domain in dXR, repression of the HBEGF gene; abundance of domain in library after vs before diphtheria toxin selection
row,Molecule,Log2 (fold change)
1,B21,2.9151
2,B22,3.353
3,B23,2.7422
4,B24,2.7236
5,B25,2.0413
6,B26,2.8082
7,B27,3.5686
